Results reported in patent US20230416335A1.

Key:
[1] = target: … (SEQ ID NO: 1)-HLA-A*02 complex (human); assay: SPR (BIAcore) or BLI (Octet) per Example 3, immobilised biotinylated pHLA, 25 C
[2] = target: … (SEQ ID NO: 1)-HLA-A*02 complex (human); assay: cell-based or functional assay

Row | Binder | Kd [1] [nM] | t1/2 [1] [h] | EC50 (mel624), IFN-γ ELISPOT, T cell activation [2] [nM]
1 | ImmTAC molecule a79b64 (TCR-anti-CD3 fusion) (TCR, part only; not given: anti-CD3 scFv, linker, constant regions, not shown: a dimerising Fc or GST) TCR alpha, part: GDAKTTQPNSMESNEEEPVHLPCNHSTISGTDYIHWYRQLPSQGPEYVIHGLTSNVNNRMASLAIAEDRKSSTLILHRATLRDAAVYYCILILGHSRLGNYIATFGKGTKLSVIP TCR beta, part: DGGITQSPKYLFRKEGQNVTLSCEQNLNHDAMYWYRQDPGQGLRLIYYSQIMNDEQKGDIAEGYSVSREKKESFPLTVTSAQKNPTAFYLCASSWWTGGSAPIRFGPGTRLTVT | 0.138 | 6.38 | 0.0275
2 | ImmTAC molecule a109b46 (TCR-anti-CD3 fusion) (TCR, part only; not given: anti-CD3 scFv, linker, constant regions, not shown: a dimerising Fc or GST) TCR alpha, part: GDAKTTQPNSMESNEEEPVHLPCNHSTISGTDYIHWYRQLPSQGPEYVIHGLTSNVNNRMASLAIAEDRKSSTLILHRATLRDAAVYYCILILGHSRLGNYQATFGKGTKLSVIP TCR beta, part: DGGITQSPKYLFRKEGQNVTLSCEQNLNHDAMYWYRQDPGQGLRLIYYSQIMGDEQKGDIAEGYSVSREKKESFPLTVTSAQKNPTAFYLCASSWWTGGSAPIRFGPGTRLTVT | 0.17 | 7.31 | 0.0601
3 | ImmTAC molecule a28b57 (TCR-anti-CD3 fusion) (TCR, part only; not given: anti-CD3 scFv, linker, constant regions, not shown: a dimerising Fc or GST) TCR alpha, part: GDAKTTQPNSMESNEEEPVHLPCNHSTISGTDYIHWYRQLPSQGPEYVIHGLTSNVNNRMASLAIAEDRKSSTLILHRATLRDAAVYYCILILGHSRAGNYIATFGKGTKLSVIP TCR beta, part: DGGITQSPKYLFRKEGQNVTLSCEQNLNHDAMYWYRQDPGQGLRLIYYSQIMGDEQKGDIAEGYSVSREKKESFPLTVTSAQKNPTAFYLCASSWWTSGASPISFGPGTRLTVT | 0.083 | 8.3 | 0.0134
4 | ImmTAC molecule a79b67 (TCR-anti-CD3 fusion) (TCR, part only; not given: anti-CD3 scFv, linker, constant regions, not shown: a dimerising Fc or GST) TCR alpha, part: GDAKTTQPNSMESNEEEPVHLPCNHSTISGTDYIHWYRQLPSQGPEYVIHGLTSNVNNRMASLAIAEDRKSSTLILHRATLRDAAVYYCILILGHSRLGNYIATFGKGTKLSVIP TCR beta, part: DGGITQSPKYLFRKEGQNVTLSCEQNLNHDAMYWYRQDPGQGLRLIYYSQIMGDEQKGDIAEGYSVSREKKESFPLTVTSAQKNPTAFYLCASSWWTSGSAPIRFGPGTRLTVT | 0.047 | 12.7 | 0.0263
5 | ImmTAC molecule a79b58 (TCR-anti-CD3 fusion) (TCR, part only; not given: anti-CD3 scFv, linker, constant regions, not shown: a dimerising Fc or GST) TCR alpha, part: GDAKTTQPNSMESNEEEPVHLPCNHSTISGTDYIHWYRQLPSQGPEYVIHGLTSNVNNRMASLAIAEDRKSSTLILHRATLRDAAVYYCILILGHSRLGNYIATFGKGTKLSVIP TCR beta, part: DGGITQSPKYLFRKEGQNVTLSCEQNLNHDAMYWYRQDPGQGLRLIYYSQIMGDEQKGDIAEGYSVSREKKESFPLTVTSAQKNPTAFYLCASSWWTGGSSPISFGPGTRLTVT | 0.0231 | 28.7 | 0.0106
6 | ImmTAC molecule a79b69 (TCR-anti-CD3 fusion) (TCR, part only; not given: anti-CD3 scFv, linker, constant regions, not shown: a dimerising Fc or GST) TCR alpha, part: GDAKTTQPNSMESNEEEPVHLPCNHSTISGTDYIHWYRQLPSQGPEYVIHGLTSNVNNRMASLAIAEDRKSSTLILHRATLRDAAVYYCILILGHSRLGNYIATFGKGTKLSVIP TCR beta, part: DGGITQSPKYLFRKEGQNVTLSCEQNLNHDAMYWYRQDPGQGLRLIYYSQIMGDEQKGDIAEGYSVSREKKESFPLTVTSAQKNPTAFYLCASSWWTGGSAEIRFGPGTRLTVT | 0.052 | 20.4 | 0.0398
7 | ImmTAC molecule a28b60 (TCR-anti-CD3 fusion) (TCR, part only; not given: anti-CD3 scFv, linker, constant regions, not shown: a dimerising Fc or GST) TCR alpha, part: GDAKTTQPNSMESNEEEPVHLPCNHSTISGTDYIHWYRQLPSQGPEYVIHGLTSNVNNRMASLAIAEDRKSSTLILHRATLRDAAVYYCILILGHSRAGNYIATFGKGTKLSVIP TCR beta, part: DGGITQSPKYLFRKEGQNVTLSCEQNLNHDAMYWYRQDPGQGLRLIYYSQIMGDEQKGDIAEGYSVSREKKESFPLTVTSAQKNPTAFYLCASSWWTGGASEISFGPGTRLTVT | 0.261 | 2.8 | 0.0317
8 | ImmTAC molecule a79b66 (TCR-anti-CD3 fusion) (TCR, part only; not given: anti-CD3 scFv, linker, constant regions, not shown: a dimerising Fc or GST) TCR alpha, part: GDAKTTQPNSMESNEEEPVHLPCNHSTISGTDYIHWYRQLPSQGPEYVIHGLTSNVNNRMASLAIAEDRKSSTLILHRATLRDAAVYYCILILGHSRLGNYIATFGKGTKLSVIP TCR beta, part: DGGITQSPKYLFRKEGQNVTLSCEQNLNHDAMYWYRQDPGQGLRLIYYSQIMGDEQKGDIAEGYSVSREKKESFPLTVTSAQKNPTAFYLCASSPWTGGSAPIRFGPGTRLTVT | 0.089 | 9.16 | 0.0167
9 | ImmTAC molecule a79b77 (TCR-anti-CD3 fusion) (TCR, part only; not given: anti-CD3 scFv, linker, constant regions, not shown: a dimerising Fc or GST) TCR alpha, part: GDAKTTQPNSMESNEEEPVHLPCNHSTISGTDYIHWYRQLPSQGPEYVIHGLTSNVNNRMASLAIAEDRKSSTLILHRATLRDAAVYYCILILGHSRLGNYIATFGKGTKLSVIP TCR beta, part: DGGITQSPKYLFRKEGQNVTLSCEQNLNHDAMYWYRQDPGQGLRLIYYSQIMGDEQKGDIAEGYSVSREKKESFPLTVTSAQKNPTAFYLCASSWWTGGAAPIRFGPGTRLTVT | 0.0779 | 8.6 | 0.0138
10 | ImmTAC molecule a28b58 (TCR-anti-CD3 fusion) (TCR, part only; not given: anti-CD3 scFv, linker, constant regions, not shown: a dimerising Fc or GST) TCR alpha, part: GDAKTTQPNSMESNEEEPVHLPCNHSTISGTDYIHWYRQLPSQGPEYVIHGLTSNVNNRMASLAIAEDRKSSTLILHRATLRDAAVYYCILILGHSRAGNYIATFGKGTKLSVIP TCR beta, part: DGGITQSPKYLFRKEGQNVTLSCEQNLNHDAMYWYRQDPGQGLRLIYYSQIMGDEQKGDIAEGYSVSREKKESFPLTVTSAQKNPTAFYLCASSWWTGGSSPISFGPGTRLTVT | 0.079 | 8.9 | 0.012
11 | ImmTAC molecule a79b74 (TCR-anti-CD3 fusion) (TCR, part only; not given: anti-CD3 scFv, linker, constant regions, part only) TCR alpha, part: GDAKTTQPNSMESNEEEPVHLPCNHSTISGTDYIHWYRQLPSQGPEYVIHGLTSNVNNRMASLAIAEDRKSSTLILHRATLRDAAVYYCILILGHSRLGNYIATFGKGTKLSVIP TCR beta, part: DGGITQSPKYLFRKEGQNVTLSCEQNLNHDAMYWYRQDPGQGLRLIYYSQIMGDEQKGDIAEGYSVSREKKESFPLTVTSAQKNPTAFYLCASSWWTGGASPIRFGPGTRLTVT | 0.0533 | 12.5 | 0.00955
12 | ImmTAC molecule a28b75 (TCR-anti-CD3 fusion) (TCR, part only; not given: TCR constant regions and anti-CD3 scFv, not shown: a dimerising Fc or GST) TCR alpha, part: GDAKTTQPNSMESNEEEPVHLPCNHSTISGTDYIHWYRQLPSQGPEYVIHGLTSNVNNRMASLAIAEDRKSSTLILHRATLRDAAVYYCILILGHSRAGNYIATFGKGTKLSVIP TCR beta, part: DGGITQSPKYLFRKEGQNVTLSCEQNLNHDAMYWYRQDPGQGLRLIYYSQIMGDEQKGDIAEGYSVSREKKESFPLTVTSAQKNPTAFYLCASSWWTGGSAPISFGPGTRLTVT | 0.214 | 5.1 | 0.0139
13 | ImmTAC molecule a79b71 (TCR-anti-CD3 fusion) (TCR, part only; not given: anti-CD3 scFv, linker, constant regions, not shown: a dimerising Fc or GST) TCR alpha, part: GDAKTTQPNSMESNEEEPVHLPCNHSTISGTDYIHWYRQLPSQGPEYVIHGLTSNVNNRMASLAIAEDRKSSTLILHRATLRDAAVYYCILILGHSRLGNYIATFGKGTKLSVIP TCR beta, part: DGGITQSPKYLFRKEGQNVTLSCEQNLNHDAMYWYRQDPGQGLRLIYYSQIMGDEQKGDIAEGYSVSREKKESFPLTVTSAQKNPTAFYLCASSWWTGGSAPIYFGPGTRLTVT | 0.087 | 14.9 | 0.0318
14 | ImmTAC molecule a79b76 (TCR-anti-CD3 fusion) (TCR, part only; not given: anti-CD3 scFv, linker, constant regions, not shown: a dimerising Fc or GST) TCR alpha, part: GDAKTTQPNSMESNEEEPVHLPCNHSTISGTDYIHWYRQLPSQGPEYVIHGLTSNVNNRMASLAIAEDRKSSTLILHRATLRDAAVYYCILILGHSRLGNYIATFGKGTKLSVIP TCR beta, part: DGGITQSPKYLFRKEGQNVTLSCEQNLNHDAMYWYRQDPGQGLRLIYYSQIMGDEQKGDIAEGYSVSREKKESFPLTVTSAQKNPTAFYLCASSWWTGGSSPIRFGPGTRLTVT | 0.0118 | 58.3 | 0.0172
15 | ImmTAC molecule a79b73 (TCR-anti-CD3 fusion) (TCR, part only; not given: anti-CD3 scFv, linker, constant regions, not shown: a dimerising Fc or GST) TCR alpha, part: GDAKTTQPNSMESNEEEPVHLPCNHSTISGTDYIHWYRQLPSQGPEYVIHGLTSNVNNRMASLAIAEDRKSSTLILHRATLRDAAVYYCILILGHSRLGNYIATFGKGTKLSVIP TCR beta, part: DGGITQSPKYLFRKEGQNVTLSCEQNLNHDAMYWYRQDPGQGLRLIYYSQIMGDEQKGDIAEGYSVSREKKESFPLTVTSAQKNPTAFYLCASSWWTGGAAPISFGPGTRLTVT | 0.132 | 4.6 | 0.0231
16 | ImmTAC molecule a28b74 (TCR-anti-CD3 fusion) (TCR, part only; not given: anti-CD3 scFv, linker, constant regions, not shown: a dimerising Fc or GST) TCR alpha, part: GDAKTTQPNSMESNEEEPVHLPCNHSTISGTDYIHWYRQLPSQGPEYVIHGLTSNVNNRMASLAIAEDRKSSTLILHRATLRDAAVYYCILILGHSRAGNYIATFGKGTKLSVIP TCR beta, part: DGGITQSPKYLFRKEGQNVTLSCEQNLNHDAMYWYRQDPGQGLRLIYYSQIMGDEQKGDIAEGYSVSREKKESFPLTVTSAQKNPTAFYLCASSWWTGGASPIRFGPGTRLTVT | 0.182 | 3.7 | 0.0243
17 | ImmTAC molecule a79b75 (TCR-anti-CD3 fusion) (TCR, part only; not given: anti-CD3 scFv, linker, constant regions, not shown: a dimerising Fc or GST) TCR alpha, part: GDAKTTQPNSMESNEEEPVHLPCNHSTISGTDYIHWYRQLPSQGPEYVIHGLTSNVNNRMASLAIAEDRKSSTLILHRATLRDAAVYYCILILGHSRLGNYIATFGKGTKLSVIP TCR beta, part: DGGITQSPKYLFRKEGQNVTLSCEQNLNHDAMYWYRQDPGQGLRLIYYSQIMGDEQKGDIAEGYSVSREKKESFPLTVTSAQKNPTAFYLCASSWWTGGSAPISFGPGTRLTVT | 0.0577 | 16.9 | 0.0236
18 | ImmTAC molecule a79b63 (TCR-anti-CD3 fusion) (TCR, part only; not given: anti-CD3 scFv, linker, constant regions, not shown: a dimerising Fc or GST) TCR alpha, part: GDAKTTQPNSMESNEEEPVHLPCNHSTISGTDYIHWYRQLPSQGPEYVIHGLTSNVNNRMASLAIAEDRKSSTLILHRATLRDAAVYYCILILGHSRLGNYIATFGKGTKLSVIP TCR beta, part: DGGITQSPKYLFRKEGQNVTLSCEQNLNHDAMYWYRQDPGQGLRLIYYSQIVGDEQKGDIAEGYSVSREKKESFPLTVTSAQKNPTAFYLCASSWWTGGSAPIRFGPGTRLTVT | 0.079 | 10.8 | 0.0229
